How the values were obtained:
Experiment in all cases: 14-3-3 overlay (far-western) assay
[1] = target: T1, GFP tagged, full length LRRK2 Ser910Ala (human, UniProt Q5S007 1-2527)
T1 construct: mature; also called S910A; not shown: GFP tag, amino-terminal

[2] = target: T2, GFP tagged, full length LRRK2 Ser935Ala (human, UniProt Q5S007 1-2527)
T2 construct: mature; also called S935A; not shown: GFP tag, amino-terminal

[3] = target: T3, GFP tagged, full length LRRK2 Ser955Ala (human, UniProt Q5S007 1-2527)
T3 construct: mature; also called S955A; GFP-LRRK2-S955A; not shown: GFP tag, amino-terminal

[4] = target: T4, GFP tagged, full length LRRK2 Ser973Ala (human, UniProt Q5S007 1-2527)
T4 construct: mature; also called S973A; GFP-LRRK2-S973A; not shown: GFP tag, amino-terminal

[5] = target: T5, GFP tagged, full length LRRK2 I2020T (human, UniProt Q5S007 1-2527)
T5 construct: mature; also called 12020T (so in the source); not shown: GFP tag, amino-terminal

[6] = target: T6, GFP tagged, full length LRRK2 from cells treated with 1 µM LRRK2-IN1 for 90 minutes (human, UniProt Q5S007 1-2527, Serines 910, 935, 955 and 973 dephosphorylated by LRRK2-IN1 treatment of the cells)
T6 construct: mature; Same polypeptide as m10; It differs only in phosphorylation state; also called LRRK2-IN1 treated LRRK2; not shown: GFP tag, amino-terminal
T6 sequence (Q5S007 whole entry): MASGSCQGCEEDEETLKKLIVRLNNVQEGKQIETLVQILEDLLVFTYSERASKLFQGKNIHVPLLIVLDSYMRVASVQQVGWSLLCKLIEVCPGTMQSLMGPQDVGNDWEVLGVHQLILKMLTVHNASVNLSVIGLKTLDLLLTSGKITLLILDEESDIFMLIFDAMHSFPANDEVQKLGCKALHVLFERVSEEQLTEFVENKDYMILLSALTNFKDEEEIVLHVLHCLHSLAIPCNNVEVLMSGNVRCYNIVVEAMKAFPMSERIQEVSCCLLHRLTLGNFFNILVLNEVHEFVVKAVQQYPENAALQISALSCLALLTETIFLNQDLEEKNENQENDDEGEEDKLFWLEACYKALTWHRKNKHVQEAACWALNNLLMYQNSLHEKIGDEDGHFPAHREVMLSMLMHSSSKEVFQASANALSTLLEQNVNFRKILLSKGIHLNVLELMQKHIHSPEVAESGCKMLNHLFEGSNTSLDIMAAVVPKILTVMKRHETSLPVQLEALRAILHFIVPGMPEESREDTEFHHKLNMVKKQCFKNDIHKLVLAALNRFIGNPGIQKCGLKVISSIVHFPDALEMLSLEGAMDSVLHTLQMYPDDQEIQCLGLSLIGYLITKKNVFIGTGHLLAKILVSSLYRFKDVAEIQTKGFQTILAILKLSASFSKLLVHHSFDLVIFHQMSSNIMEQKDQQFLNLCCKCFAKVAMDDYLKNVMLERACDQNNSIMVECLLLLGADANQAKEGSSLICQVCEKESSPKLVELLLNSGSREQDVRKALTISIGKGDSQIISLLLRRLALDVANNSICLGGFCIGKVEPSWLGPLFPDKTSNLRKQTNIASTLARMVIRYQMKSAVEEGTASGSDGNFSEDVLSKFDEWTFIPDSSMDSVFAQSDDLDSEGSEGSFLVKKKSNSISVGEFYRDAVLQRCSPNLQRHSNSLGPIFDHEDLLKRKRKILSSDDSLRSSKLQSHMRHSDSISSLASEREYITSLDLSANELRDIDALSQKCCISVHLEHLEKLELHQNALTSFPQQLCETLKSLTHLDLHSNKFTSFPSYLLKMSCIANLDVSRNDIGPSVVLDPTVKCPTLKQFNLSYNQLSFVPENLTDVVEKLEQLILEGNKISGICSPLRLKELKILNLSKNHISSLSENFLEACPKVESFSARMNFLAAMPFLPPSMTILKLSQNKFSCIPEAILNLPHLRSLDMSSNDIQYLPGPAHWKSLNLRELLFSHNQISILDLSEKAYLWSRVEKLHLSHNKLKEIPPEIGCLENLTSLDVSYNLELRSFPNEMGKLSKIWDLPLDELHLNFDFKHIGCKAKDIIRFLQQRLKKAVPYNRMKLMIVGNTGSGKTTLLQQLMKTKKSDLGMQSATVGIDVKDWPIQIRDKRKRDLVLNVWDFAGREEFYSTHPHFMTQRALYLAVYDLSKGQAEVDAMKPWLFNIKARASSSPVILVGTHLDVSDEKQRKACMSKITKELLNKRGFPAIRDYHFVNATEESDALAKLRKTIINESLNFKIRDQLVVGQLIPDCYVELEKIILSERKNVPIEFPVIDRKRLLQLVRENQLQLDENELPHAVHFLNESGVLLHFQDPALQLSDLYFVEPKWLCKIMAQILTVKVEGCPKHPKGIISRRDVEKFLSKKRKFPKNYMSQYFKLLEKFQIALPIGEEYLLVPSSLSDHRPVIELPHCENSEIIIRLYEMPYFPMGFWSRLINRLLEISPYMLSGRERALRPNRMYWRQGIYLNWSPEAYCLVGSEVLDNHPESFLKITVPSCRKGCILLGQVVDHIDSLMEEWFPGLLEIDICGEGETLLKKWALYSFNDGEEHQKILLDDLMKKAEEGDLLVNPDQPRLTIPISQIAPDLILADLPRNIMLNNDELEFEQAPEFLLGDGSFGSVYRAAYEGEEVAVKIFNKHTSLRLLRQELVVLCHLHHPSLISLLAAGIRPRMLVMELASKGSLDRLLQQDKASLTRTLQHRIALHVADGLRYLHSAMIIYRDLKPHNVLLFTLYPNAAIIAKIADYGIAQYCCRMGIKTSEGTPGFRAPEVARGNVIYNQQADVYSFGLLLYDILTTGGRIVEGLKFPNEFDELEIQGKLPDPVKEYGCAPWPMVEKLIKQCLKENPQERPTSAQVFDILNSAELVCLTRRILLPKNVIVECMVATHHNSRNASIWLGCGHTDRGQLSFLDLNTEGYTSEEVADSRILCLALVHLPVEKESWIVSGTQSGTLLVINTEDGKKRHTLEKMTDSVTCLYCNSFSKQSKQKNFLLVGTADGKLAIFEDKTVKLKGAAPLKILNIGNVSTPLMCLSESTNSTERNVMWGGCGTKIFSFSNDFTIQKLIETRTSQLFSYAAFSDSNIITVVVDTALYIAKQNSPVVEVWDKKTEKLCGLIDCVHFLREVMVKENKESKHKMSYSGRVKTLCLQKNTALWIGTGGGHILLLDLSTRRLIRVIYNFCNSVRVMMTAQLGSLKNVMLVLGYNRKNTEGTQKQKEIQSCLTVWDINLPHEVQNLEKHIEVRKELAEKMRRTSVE

T1 sequence (Q5S007 whole entry S910A): as the sequence (Q5S007 whole entry) above, with S910A counted along it
T5 sequence (Q5S007 whole entry I2020T): as the sequence (Q5S007 whole entry) above, with I2020T counted along it
T4 sequence (Q5S007 whole entry S973A): as the sequence (Q5S007 whole entry) above, with S973A counted along it
T3 sequence (Q5S007 whole entry S955A): as the sequence (Q5S007 whole entry) above, with S955A counted along it
T2 sequence (Q5S007 whole entry S935A): as the sequence (Q5S007 whole entry) above, with S935A counted along it

B1: LiCOR Dyelight labelled 14-3-3 protein (recombinant, His tagged BMH1) (other, UniProt P29311 1-267, looked up)
chain: MSTSREDSVYLAKLAEQAERYEEMVENMKTVASSGQELSVEERNLLSVAYKNVIGARRASWRIVSSIEQKEESKEKSEHQVELICSYRSKIETELTKISDDILSVLDSHLIPSATTGESKVFYYKMKGDYHRYLAEFSSGDAREKATNASLEAYKTASEIATTELPPTHPIRLGLALNFSVFYYEIQNSPDKACHLAKQAFDDAIAELDTLSEESYKDSTLIMQLLRDNLTLWTSDMSESGQAEDQQQQQQHQQQQPPAAAEGEAPK
modifications: fluorescent dye label (LiCOR Dyelight)
notes: also called fluorescent dye labeled recombinant 14-3-3; not shown: His tag
B1: no binding [1]; no binding [2]; binds [3]. B1: binds [4]; no binding [5]; binds [6].

Reference: patent publication US9187567 (PARKINSON S INSTITUTE, dated 2015)
